The data set deals with the molecule itself. Kind of data set: cryo-EM structure; amyloid fibrils polymerised from monomer at 4°C with seeds (5% mol/mol) in 5 mM KPi, 150 mM NaCl, pH 7.4, without agitation; third-generation (G3) fibrils.

Here are results for one protein from PMC12637829 (Research Square, 2025).

B1: Sup35NM S17R (domain or fragment, yeast, UniProt P05453 1-253, looked up)
chain: MSDSNQGNNQQNYQQYRQNGNQQQGNNRYQGYQAYNAQAQPAGGYYQNYQGYSGYQQGGYQQYNPDAGYQQQYNPQGGYQQYNPQGGYQQQFNPQGGRGNYKNFNYNNNLQGYQAGFQPQSQGMSLNDFQKQQKQAAPKPKKTLKLVSSSGIKLANATKKVGTKPAESDKKEEEKSAETKEPTKEPTKVEEPVKKEEKPVQTEEKTEEKSELPKVEDLKISESTHNTNNANVTSADALIKEQEEEVDDEVVND
notes: Sup35, yeast translation termination factor; NM domain = N-terminal prion domain (N or PrD) plus the polar M region (M124-D253), with S17R; In the fibril, many copies are stacked along the axis; also called S17R mutant; S17R4 (fibrils formed at 4°C); not shown: 7x histidine, C-terminal, kept
With B1, the binding result was “binds”.
